Laboratory results from US7569579B2, “Cyclopropyl compounds as ccr5 antagonists” (SmithKline Beecham Corporation, priority 2002, dated 2009).

Target: T1, human CCR5 chemokine receptor (Homo sapiens, UniProt P51681)
T1 construct: host or cells: Chinese Hamster Ovary (CHO) cells; membranes prepared from the cell pellet
Test: CC-Chemokine Receptor-5 binding by scintillation proximity assay (CCR5 SPA), displacement of 125I-MIP1α
Settings: standard compound, 14-point concentration-response curve in triplicate
Protocol: CC-Chemokine Receptor-5 Binding by Scintillation Proximity Assay (CCR5 SPA) Scintillation Proximity Assay for the Human CC-Chemokine Receptor, CCR-5
This protocol describes a high-throughput screen using SPA binding to identify compounds that inhibit binding of ^125I-MIP1α to the human CCR5 chemokine receptor.
Human CCR5 receptors were expressed in Chinese Hamster Ovary (CHO) cells, registration # 12025. Cells were grown in suspension and a 50 to 80 ml CCR5 cell pellet was prepared. […]
The saturation curve binding experiment is performed by adding varying amounts of [^125I]MIP1α (0-8.5 nM to membranes and beads in concentrations chosen from the optimal protein/bead ratio. The data is analyzed using a non-linear curve-fitting program. The Kd and Bmax are derived from the curve. […]

T1 sequence (P51681 whole entry): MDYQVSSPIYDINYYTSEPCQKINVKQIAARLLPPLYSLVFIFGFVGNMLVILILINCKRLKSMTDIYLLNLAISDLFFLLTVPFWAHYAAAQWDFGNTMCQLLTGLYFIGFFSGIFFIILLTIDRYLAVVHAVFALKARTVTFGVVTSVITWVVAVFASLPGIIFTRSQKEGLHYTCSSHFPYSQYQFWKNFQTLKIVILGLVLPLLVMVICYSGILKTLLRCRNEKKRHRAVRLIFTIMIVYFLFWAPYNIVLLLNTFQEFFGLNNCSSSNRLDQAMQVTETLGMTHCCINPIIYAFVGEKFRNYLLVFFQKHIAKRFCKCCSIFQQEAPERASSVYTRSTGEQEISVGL

average historical pKi: 7.6
Substance: MIP1α: standard compound of the CCR5 SPA; natural chemokine ligand of CCR5 (Peprotech)
